PMC7337065
Several values for one entry are separate records, joined by “and”; a condition that tells them apart may be missing. Equal entries are not always repeated.

Key:
[1] = test system: P02787; test: SAXS; concentration series at pH 4.0-8.0 and with NaCl or arginine at pH 5.0/6.5; estimated MW from scattering; volume fractions from OLIGOMER with monomer crystal structures and a SASREFMX dimer model; settings: other: SAXS
[2] = target: Recombinant human transferrin (human) (UniProt P02787); test: SEC-MALS; Superdex 200 Increase 10/30 GL, 4 °C, mobile phase 38 mM NaH2PO4, 12 mM Na2HPO4, 150 mM NaCl, 200 ppm NaN3, pH 7.4; samples from all tested formulation conditions

Recombinant human transferrin, sequence (P02787 20-698): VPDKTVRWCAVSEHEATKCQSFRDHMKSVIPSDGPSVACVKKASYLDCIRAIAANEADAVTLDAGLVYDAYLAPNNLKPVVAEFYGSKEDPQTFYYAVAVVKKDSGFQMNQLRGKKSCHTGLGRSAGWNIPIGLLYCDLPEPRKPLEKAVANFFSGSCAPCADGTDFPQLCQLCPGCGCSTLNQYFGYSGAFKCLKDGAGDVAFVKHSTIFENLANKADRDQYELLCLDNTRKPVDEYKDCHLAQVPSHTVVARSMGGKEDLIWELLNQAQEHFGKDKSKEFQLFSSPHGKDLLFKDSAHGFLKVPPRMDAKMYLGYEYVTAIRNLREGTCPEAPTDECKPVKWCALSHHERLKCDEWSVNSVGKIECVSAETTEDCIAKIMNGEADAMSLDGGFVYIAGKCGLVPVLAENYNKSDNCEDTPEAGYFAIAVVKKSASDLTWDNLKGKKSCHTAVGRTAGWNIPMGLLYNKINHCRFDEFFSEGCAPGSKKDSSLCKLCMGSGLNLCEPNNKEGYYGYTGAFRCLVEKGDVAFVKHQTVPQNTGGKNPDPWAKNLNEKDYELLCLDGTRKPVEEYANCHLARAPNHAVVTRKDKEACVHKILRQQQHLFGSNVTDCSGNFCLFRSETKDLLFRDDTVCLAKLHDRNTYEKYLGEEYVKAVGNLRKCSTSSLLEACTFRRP

percent dimer [2] [%] | percent trimer [2] [%] | stoichiometry N [2] | Substance | volume fraction of dimer + aggregates (NaCl) [1] | volume fraction of dimer + aggregates (acetate) [1] | volume fraction of dimer + aggregates (arginine) [1] | volume fraction of dimer + aggregates (histidine) [1]
– | – | – | Recombinant human transferrin | 0.5 | 0.2 | 0.4 | 0.2
12 | 2 | 2 and 3 | Recombinant human transferrin (from UniProt P02787 20-698) (natural protein) | – | – | – | –
